Fewer inactive variants are shown than the library holds.
B1: TPR 5TU (parent)
chain: GGAUCUUCUCGAUCUAACAAAAAAGACAAAUCUGCCACAAAGCUUGAGAGCAUCUUCGGAUGCAGAGGCGGCAGCCUUCGGUGGCGCGAUAGCGCCAACGUUCUCAACUAUGACACGCAAAACGCGUGCUCCGUUGAAUGGAGUUUAUCAUG

Variants of: B1
Experiment: polymerase ribozyme fitness, log enrichment relative to wild type (log ratio); higher = more active; in vitro selection for triplet polymerase activity
How it was run: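 In triplicate, a single round of in vitro selection was run on each mutant library, PCR-built and transcribed, covering one subunit of a heterodimeric triplet polymerase ribozyme. Frozen incubation at −7 °C followed annealing with a biotinylated primer, partner subunit and triplets, and extended constructs were then gel-excised, streptavidin-captured and taken through RT-PCR. Fitness is the logarithm of genotype enrichment over wild-type enrichment, from inverse-variance-weighted replicate averages of Illumina-sequenced inputs and outputs. […] only genotypes with ≥10 input reads and ≥1 read per output were kept.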

Variant | polymerase ribozyme fitness (log ratio)
G25U G50C C87G G136U | ≤ -4.2
U55G U145A | -0.604
C10U U15C A29U C95U | ≤ -4.2
C85G C93U C116U U127G | ≤ -4.2
A21U G141C | 0.187
A3C U6G G46C C75A C79A G86A C103G G126U | ≤ -4.2
A52U U56A C79G C105A | ≤ -4.2
A20G C96A | -1.84
C5A C38U G59A C87G C103A A121U G126A U146C | ≤ -4.2
U4A C8U C108G G140C | ≤ -4.2
C14A C38U | -1.31
U44C G94C U146A | ≤ -4.2
A19U C57G C95U C103G U104G | ≤ -4.2
G50C G59A | -3.03
A142G A147U | -0.49
C57U G59A C85U C95G | -2.02
A3U U7C U56A G58C A60C G70C G88A G94A A115U | ≤ -4.2
A12C C14U A22C U61G G65A G86A C93U U134G | ≤ -4.2
C10G G92C | -3.61
G42C U56G U144A | ≤ -4.2
A3G C18U C27G A28U U78A | ≤ -4.2
U15C A26U C57G G59U C87A G88A A107U U148G | ≤ -4.2
C51A C95U C118U U135A | -2.41
G81C G140C | -3.7

Variant | polymerase ribozyme fitness (log ratio)
A40C C85U C95U A98G G126U | -1.37
A52C C87U | -0.789
A22U A26G A28C A37U U56A C96U A98U | ≤ -4.2
U44G A91C G126A G143C | ≤ -4.2
A21U A49G U55A G84A U104C A137U G140C A150C | ≤ -4.2
A37G A97G A98G | -2.55
C5A A12G A23C G84A | -4.02
A26G C69U C79U C87U A91U | ≤ -4.2
C38U G88C G126C A147C | ≤ -4.2
U56A G80U | -0.898
C87A A150G | ≤ -4.2
C57G G83C C85U A119G | -1.44
A22G A40C U139G | 0.649
A91U C108U A113U C118U C149G | ≤ -4.2
A73G G83U G84U | -1.48
A23G C36A C105A A107G U145A | ≤ -4.2
C10G U13C G70A U111G U148A | ≤ -4.2
U53A U55G G65C C85G C87U C103U C131A | ≤ -4.2
C5U G25C G42U U61A A107U G133U A142C U148A | ≤ -4.2
C10U A19U A23U C57U G58C C75U U78G C95U C105U | ≤ -4.2
A29U A97U A115U G124C U134C U148A | ≤ -4.2
A21U A73U C116A U134A G141C A150G | ≤ -4.2
C76A C95U | 0.252
A29G C43U U45A A52C C75G A91U A115G U151G | ≤ -4.2

Variant | polymerase ribozyme fitness (log ratio)
C27U C99G G133U G141A C149G | ≤ -4.2
C18U U31A A60G G84C A89C C105U | -2.16
A22U C54U | 0.174
U82C G84A G117U | -0.688
A47C C57A G84U A89C | -1.5
A37G U53A U134G | -3.7
A40U A49C | ≤ -4.2
C8A C18G A40G C54G A73C C87A U90A C114U | ≤ -4.2
C32G C51U G94U | ≤ -4.2
C69U G86C | ≤ -4.2
U56A A97G | -0.89
G50C G59A U145C | -3.51
G59C A119C | -0.18
C57G A60C | -2.4
G42C G48A C103A U144C | ≤ -4.2
G83C C118G | -0.968
A49C C54U G86C G88C A138U | ≤ -4.2
G48A G59C | -0.874
A22G G59A | -0.246
A19C C96U A106G A120C | 0.311
G48A U61A A91C C131A U139C | ≤ -4.2
G50U A64G C103G C125A A142G | ≤ -4.2
A23G U55A C87U | -2.98
A17G G25C G50A G86A C93G | ≤ -4.2

Variant | polymerase ribozyme fitness (log ratio)
A39U G58C G74U A91G C123G G133A U146C | ≤ -4.2
A23G C76A | -2.49
C85A G92C G141A G143U | ≤ -4.2
C8U U55A | -2.51
U9A U31G G58U A73U C123U U135A | ≤ -4.2
A29C G58C | -3.97
C72U A147U | 0.651
A16C C36A G46C G68C C93U G112U A115C A122U G143U | ≤ -4.2
C87U C103G | -2.13
A22C A23G C54U | ≤ -4.2
A41U G50C C76U C93G A138G A150U | ≤ -4.2
C76U G81A C99U | -0.44
C43A U44A C118U | -4.17
A26U A41G G62U | -1.6
G25C A150C | -3.47
A19U C57U C103G A119G C123A | -3.45
A30U U45G C93U C103G C118G | ≤ -4.2
C93U C118A C125A U139C | -4.16
U33C C54A G83C C108G U146A C149A | ≤ -4.2
U78G A89U A106G C118U | ≤ -4.2
A40G U53A A73U C103G | ≤ -4.2
G25C A49C C51U U53G C54A C116U G141A G152U | ≤ -4.2
A17G A23G G48C A91U U104A | ≤ -4.2
G48A U61A C105G | ≤ -4.2

Variant | polymerase ribozyme fitness (log ratio)
G84U A106C | -2.1
C54A A66G A91G C95G G141A G143U U146C | ≤ -4.2
U82C C93G C116G C118U G140A A150C | ≤ -4.2
A17C A28U G46U A98U A107G A113G G133U | ≤ -4.2
G59U A97C C99G | -3.18
U9C A30U C35A U82A A91U C93A G140U G143A U151G | ≤ -4.2
U9A U55G U78G G143C | ≤ -4.2
C8U C87U | -2.59
A26G C32A A39C C54A A150G | ≤ -4.2
C8U G59A C116U | -3.27
A19C C38U C96U A142U | -0.812
A49C G50U G71C G94C G136A U144C | ≤ -4.2
C63U U82G G126A G140A | -3.92
A122U G141C | 0.115
G84C C125G | -1.94
G11A U134A | -3.6
C38G G80C C99G C116U | -0.78
A16U A41G A47C C76G G88C G94C A110C U134A G140A G141C A147C | ≤ -4.2
C18G A21G A24U A41C U53G C54G G84U G92U C93G G143C | ≤ -4.2
A12C U33A G48C U127G G140C | ≤ -4.2
A39U G68A A73G C87G C132A G141C U144C | ≤ -4.2
C14A C18U A22U A26U U82C C95U U145G U148C C149U | ≤ -4.2
A12G A22C A66U C69U G92A | ≤ -4.2
C85U G136U | -1.83

Variant | polymerase ribozyme fitness (log ratio)
C5U C54G | -0.591
A39G G94C | -2.32
G25U C35A A41G C54U C87U C95U | -3.99
A24C G68U C75G C76G A110G A121U | ≤ -4.2
C54G A91U | ≤ -4.2
C54U U55A C95G C96A | -3.07
C95U C96G U135G U144G A147C | -4.2
C96G C131A | -2.35
U4G A40C A49G C96A | -3.02
U6G A16C A22U C51U C76U C85A C118U | -3.97
G65A C105U | -0.804
A49C G92U U127C | ≤ -4.2
C35U C79A G81U C93A U102A U127A | ≤ -4.2
C14A A17G G74U C85U C99G U101A U148A | ≤ -4.2
A30C C57U G59C U82A G117A A138C | ≤ -4.2
A19U G58A C105G | -2.43
C51G C76A C87U | ≤ -4.2
A19G A30G C38U C85G A89U U130G | ≤ -4.2
C129U | -0.0537
C32A G83A G88C C116G G140C | -4.04
C57A C87U | -1.52
C14A A16C G46A G67C C85A C95A | ≤ -4.2
A21U A24C C27G A28U G88U U102C A107C C114U | ≤ -4.2
G58A U102G A121U | -2.85

Variant | polymerase ribozyme fitness (log ratio)
A21C G59A | -0.0146
C10U C14G A39C A91G C95G C99U C105G A137G | ≤ -4.2
A20G C63A G74A C93A | ≤ -4.2
A19G C32A U56G C57U U82A | ≤ -4.2
A22C U61C G80A A119U C125A | -2.69
A49G | -0.331
A26U G80A A98C U101G | -3.73
U56A G84U A89C A142U | -3.24
U53A G62C C93A C118G G133A | ≤ -4.2
A24C C27G A29U C57U G86C C103A | ≤ -4.2
G11U U33G A66C G84A G128U A137C U145A | ≤ -4.2
A3G C85G | -3.16
C54A G81C | -0.408
U78C C85U C103A G141U G152U | ≤ -4.2
A20G A29U C51G C87G | ≤ -4.2
U31A U45A A47C C93U C99G U135A | ≤ -4.2
U44A G58U G70C C76A A91G A115C | ≤ -4.2
U45A C96U | -2.86
C18G A24C G34A C57A C85U A89U A97G A120G A121U | ≤ -4.2
U56A G59A A97U C149U | -1.48
C5U A19G A23G G58U G81A G94C C116A C129U U135C U146G | ≤ -4.2
G88A A110G A122U | -3.97
G58U A91G | -2.46

Reference: the RNAGym collection of RNA variant scans (doi:10.1073/pnas.2313332121)
